Test results from publication PMC8589989.

Columns and labels:
His-MBP-ZNF384 [1] = target: T1, His-MBP-ZNF384 (human, UniProt Q8TF68-2 1-516); assay: BLI; 400 nM protein; Pull-down: 10 mM Tris pH 7.5, 150 mM KCl, 5 mM MgCl2, 0.25% Tween-20, 3.5 mM DTT, 5% glycerol, 0.1% BSA, 4 C; BLI: 10 mM Tris pH 7.5, 150 mM KCl, 5 mM MgCl2, 0.05% Tween-20, 0.1% BSA, 1 mM DTT, 298 K; settings: protein: recombinant; tags: His6-MBP; label: 5' biotin; single strand
T1 sequence: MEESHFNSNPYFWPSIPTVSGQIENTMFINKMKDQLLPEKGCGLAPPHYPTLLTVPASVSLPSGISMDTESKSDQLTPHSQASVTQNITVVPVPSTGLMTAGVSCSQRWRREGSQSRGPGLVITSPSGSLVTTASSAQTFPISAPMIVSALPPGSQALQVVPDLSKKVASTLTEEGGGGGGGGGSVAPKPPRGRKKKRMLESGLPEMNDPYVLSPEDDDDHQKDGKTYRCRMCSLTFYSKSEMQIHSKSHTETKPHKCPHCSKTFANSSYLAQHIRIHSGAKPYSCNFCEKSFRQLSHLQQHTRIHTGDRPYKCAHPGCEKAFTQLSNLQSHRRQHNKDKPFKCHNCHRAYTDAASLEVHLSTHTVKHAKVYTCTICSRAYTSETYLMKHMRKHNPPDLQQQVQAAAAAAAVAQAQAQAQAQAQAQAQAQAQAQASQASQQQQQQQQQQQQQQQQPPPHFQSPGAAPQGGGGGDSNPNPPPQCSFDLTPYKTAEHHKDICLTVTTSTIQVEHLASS

His-MBP-ZNF384 [2] = target: T1, His-MBP-ZNF384; assay: BLI; 400 nM protein; seemingly lower affinity than ssDNA; Pull-down: 10 mM Tris pH 7.5, 150 mM KCl, 5 mM MgCl2, 0.25% Tween-20, 3.5 mM DTT, 5% glycerol, 0.1% BSA, 4 C; BLI: 10 mM Tris pH 7.5, 150 mM KCl, 5 mM MgCl2, 0.05% Tween-20, 0.1% BSA, 1 mM DTT, 298 K; settings: protein: recombinant, tags: His6-MBP, 24 bp duplex
[3] = target: His-Ku70/Ku80;His-MBP-ZNF384 (human?;human, UniProt P12956;P13010;Q8TF68-2 1-609;1-732;1-516, |); assay: pull-down; Ku binding enhanced by increasing ZNF384; Pull-down: 10 mM Tris pH 7.5, 150 mM KCl, 5 mM MgCl2, 0.25% Tween-20, 3.5 mM DTT, 5% glycerol, 0.1% BSA, 4 C; BLI: 10 mM Tris pH 7.5, 150 mM KCl, 5 mM MgCl2, 0.05% Tween-20, 0.1% BSA, 1 mM DTT, 298 K; settings: protein: recombinant;recombinant; tags: His;His6-MBP; copies: 1;1;1; label: 5' biotin on strand 1; 3' overhang 20 nt (strand 1, T-rich), 24 bp duplex
Sequence of His-Ku70/Ku80;His-MBP-ZNF384 (P12956 whole entry, chain 1 of 2): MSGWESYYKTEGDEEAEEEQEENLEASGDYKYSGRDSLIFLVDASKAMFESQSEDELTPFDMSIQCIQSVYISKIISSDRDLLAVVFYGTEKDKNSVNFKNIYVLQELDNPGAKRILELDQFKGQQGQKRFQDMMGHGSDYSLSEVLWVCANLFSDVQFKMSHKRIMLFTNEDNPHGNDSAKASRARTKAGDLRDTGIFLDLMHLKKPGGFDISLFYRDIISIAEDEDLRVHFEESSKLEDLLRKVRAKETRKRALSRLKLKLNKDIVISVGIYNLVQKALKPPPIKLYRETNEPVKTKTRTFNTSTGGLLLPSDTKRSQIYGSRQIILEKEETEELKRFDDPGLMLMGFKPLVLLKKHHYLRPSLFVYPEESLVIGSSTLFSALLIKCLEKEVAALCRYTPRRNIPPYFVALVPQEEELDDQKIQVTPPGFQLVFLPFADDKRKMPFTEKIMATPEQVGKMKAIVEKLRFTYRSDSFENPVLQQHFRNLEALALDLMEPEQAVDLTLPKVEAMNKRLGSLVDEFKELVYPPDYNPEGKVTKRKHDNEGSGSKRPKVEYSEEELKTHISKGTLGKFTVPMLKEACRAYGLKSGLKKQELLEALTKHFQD
Sequence of His-Ku70/Ku80;His-MBP-ZNF384 (P13010 whole entry, chain 2 of 2): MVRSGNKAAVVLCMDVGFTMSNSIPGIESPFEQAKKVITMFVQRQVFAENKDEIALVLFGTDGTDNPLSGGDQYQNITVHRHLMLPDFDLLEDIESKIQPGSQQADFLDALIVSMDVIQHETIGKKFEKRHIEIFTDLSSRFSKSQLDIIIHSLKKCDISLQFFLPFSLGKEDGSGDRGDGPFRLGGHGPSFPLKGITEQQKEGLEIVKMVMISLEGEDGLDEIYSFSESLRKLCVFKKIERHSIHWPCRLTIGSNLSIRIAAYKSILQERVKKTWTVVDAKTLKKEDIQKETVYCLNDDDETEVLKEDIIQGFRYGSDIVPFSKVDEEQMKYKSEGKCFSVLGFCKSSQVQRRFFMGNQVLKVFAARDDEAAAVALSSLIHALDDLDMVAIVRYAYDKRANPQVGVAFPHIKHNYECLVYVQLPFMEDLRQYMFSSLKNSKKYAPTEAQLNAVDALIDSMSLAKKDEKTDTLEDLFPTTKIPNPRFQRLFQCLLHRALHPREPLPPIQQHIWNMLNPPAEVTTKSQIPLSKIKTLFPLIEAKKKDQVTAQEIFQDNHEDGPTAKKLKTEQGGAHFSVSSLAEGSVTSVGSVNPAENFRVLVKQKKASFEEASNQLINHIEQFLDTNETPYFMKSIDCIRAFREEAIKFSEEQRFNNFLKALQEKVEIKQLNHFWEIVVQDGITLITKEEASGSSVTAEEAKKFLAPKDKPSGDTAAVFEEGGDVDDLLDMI

His-Ku70/Ku80 = His-Ku70/Ku80 (UniProt P12956;P13010 1-609;1-732); assay: pull-down; 100 fmol Ku, without ZNF384; Pull-down: 10 mM Tris pH 7.5, 150 mM KCl, 5 mM MgCl2, 0.25% Tween-20, 3.5 mM DTT, 5% glycerol, 0.1% BSA, 4 C; BLI: 10 mM Tris pH 7.5, 150 mM KCl, 5 mM MgCl2, 0.05% Tween-20, 0.1% BSA, 1 mM DTT, 298 K; settings: protein: recombinant; tags: His; copies: 1;1; label: 5' biotin on strand 1; 3' overhang 20 nt (strand 1, T-rich), 24 bp duplex
Sequence of His-Ku70/Ku80 (P12956 whole entry, chain 1 of 2): as the sequence (P12956 whole entry, chain 1 of 2) above
Sequence of His-Ku70/Ku80 (P13010 whole entry, chain 2 of 2): as the sequence (P13010 whole entry, chain 2 of 2) above

His-MBP-ZNF384 [4] = target: T1, His-MBP-ZNF384; assay: pull-down; did not show RNA binding; Pull-down: 10 mM Tris pH 7.5, 150 mM KCl, 5 mM MgCl2, 0.25% Tween-20, 3.5 mM DTT, 5% glycerol, 0.1% BSA, 4 C; BLI: 10 mM Tris pH 7.5, 150 mM KCl, 5 mM MgCl2, 0.05% Tween-20, 0.1% BSA, 1 mM DTT, 298 K; settings: protein: recombinant; tags: His6-MBP; label: 5' biotin; single strand

B1: ssDNA T-strand (ssDNA(T)) (ssDNA)
DNA: GCGATCATGACGTAGACGATAGCGTTCTTTTTTTTTCTTTTTCT
Does B1 bind (His-MBP-ZNF384 [1])?
Result: binds

B2: 3' overhang DNA (dsDNA)
DNA 1: B1 DNA
DNA 2: CGCTATCGTCTACGTCATGATCGC
What does the source list for B2?
binding result (His-MBP-ZNF384 [2]; label: 5' biotin on strand 1, 3' overhang 20 nt (strand 1, T-rich)): binds; binding result [3]: binds; binding result (His-Ku70/Ku80): binds

B3: 5' overhang DNA (dsDNA)
DNA 1: TTCTTTTTTTTTCTTTTTCTGCGATCATGACGTAGACGATAGCG
DNA 2: CGCTATCGTCTACGTCATGATCGC
Does B3 bind (His-MBP-ZNF384 [2]; label: 5' biotin on strand 2, 5' overhang 20 nt (strand 1, T-rich))?
Result: binds

B4: RNA U-strand (ssRNA)
RNA: GCGAUCAUGACGUAGACGAUAGCGUUCUUUUUUUUUCUUUUUCU
Does B4 bind (His-MBP-ZNF384 [4])?
Result: no binding
